Source: US20190016816A1 (APTEVO RESEARCH AND DEVELOPMENT, published 2019)
Substitutions are numbered along the chain they refer to.

Key:
human CD137 on cells [1] = target: T1, human CD137 on cells (human, UniProt Q07011 24-255); experiment: cell-based or functional assay
human 5T4 on cells [2] = target: T2, human 5T4 on cells (human, UniProt Q13641 32-420); experiment: flow cytometry, CHO-K1 cells expressing human 5T4, labelled anti-human IgG secondary, MFI (mean)
T2 construct: also called TPBG; hu5T4
T2 sequence: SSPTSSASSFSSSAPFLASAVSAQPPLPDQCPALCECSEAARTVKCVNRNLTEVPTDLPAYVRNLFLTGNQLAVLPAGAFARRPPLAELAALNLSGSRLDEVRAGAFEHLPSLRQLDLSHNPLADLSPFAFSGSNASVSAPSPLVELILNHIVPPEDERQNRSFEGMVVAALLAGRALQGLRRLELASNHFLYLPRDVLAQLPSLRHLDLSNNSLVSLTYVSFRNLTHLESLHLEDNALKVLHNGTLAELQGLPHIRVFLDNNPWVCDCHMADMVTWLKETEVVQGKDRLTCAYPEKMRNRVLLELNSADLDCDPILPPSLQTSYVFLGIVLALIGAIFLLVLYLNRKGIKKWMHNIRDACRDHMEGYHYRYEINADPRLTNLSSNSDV
Procedure: (§1) Binding studies were performed by standard flow cytometry-based staining procedures two cell lines expressing 5T4:CHO-K1 cells (obtained from Alligator) transduced with human or cynomolgus macaque 5T4 and SKOV-3 human ovarian adenocarcinoma cells which express (human) 5T4. All labeling and washes were performed in U-bottom 96-well plates in saline buffer with 0.1% BSA and 2 mM EDTA. Cell were plated at approximately 100,000 cells per well and incubated with a range of 100 nM to 0.05 nM concentrations of test molecules in […], for 30 minutes on ice. Cells were washed three times then incubated for another 30 min on ice with fluorescently-labeled secondary polyclonal antibody, F(ab′)² goat anti-human IgG (Jackson ImmunoResearch Laboratories). The cells were then washed twice and the samples acquired in a BD LSRII or a Symphony A3 flow cytometer. The sample files were analyzed using FlowJo software; the mean fluorescence intensity (MFI-mean) or median fluorescence intensity (MFI-median) of the live population of cells in each well was calculated after gating on live cells (forward vs side scatter). Nonlinear regression analysis to determine EC₅₀ values was performed in GraphPad Prism 6® graphing and statistics software.

human CD137 on cells [3] = target: T1, human CD137 on cells; experiment: flow cytometry, CHO-K1 cells expressing human CD137, PE anti-human IgG Fc secondary, MFI (median)
Procedure: (§2) Binding studies on CHO-K1 cells lines expressing CD137 were performed by standard flow cytometry-based staining procedures. CHO-K1 cells (generated by Alligator) were transfected with human or cynomolgus macaque CD137. A typical experiment would label approximately 100,000 cells per well, in 96-well plates, with a range of 100 nM to 0.05 nM binding molecule in 50 μL of saline buffer with 2% BSA and 2 mM EDTA, for 30 min on ice, followed by washes and incubation with PE-labeled secondary antibody, goat anti-human IgG Fcγ ([…]), for 20 minutes on ice. Signal from bound molecules was detected using a LSR-II™ or a Symphony A3 flow cytometer (BD Biosciences) and analyzed by FlowJo flow cytometry analysis software. Median fluorescence intensity (MFI-median) of bound molecules on live cells was determined after exclusion of doublets cells. Nonlinear regression analysis to determine EC₅₀ values was performed in GraphPad Prism 6® graphing and statistics software.

[4] = target: T3, cynomolgus CD137 on cells (cynomolgus macaque, UniProt A9YYE7 24-254); experiment: flow cytometry, CHO-K1 cells expressing cynomolgus CD137, PE anti-human IgG Fc secondary, MFI (median)
T3 construct: whole, on cells; also called CHO-K1/cynomolgus CD137 cell line; cynomolgus monkey CD137 on CD3-stimulated primary CD8 T cells
T3 sequence (A9YYE7 entry or part of it): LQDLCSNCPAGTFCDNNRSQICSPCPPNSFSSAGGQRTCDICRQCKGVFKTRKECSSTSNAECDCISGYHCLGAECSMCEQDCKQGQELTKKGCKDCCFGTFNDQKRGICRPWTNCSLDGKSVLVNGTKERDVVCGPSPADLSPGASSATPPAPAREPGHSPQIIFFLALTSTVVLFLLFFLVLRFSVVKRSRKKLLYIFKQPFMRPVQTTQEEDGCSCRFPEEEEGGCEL
Procedure: as §2

cynomolgus 5T4 on cells = target: T4, cynomolgus 5T4 on cells (cynomolgus macaque, UniProt Q4R8Y9 35-420); experiment: flow cytometry, CHO-K1 cells expressing cynomolgus 5T4, labelled anti-human IgG secondary, MFI (median)
T4 construct: whole, on cells; also called CHO-K1/cynomolgus 5T4 transfectants
T4 sequence (looked up): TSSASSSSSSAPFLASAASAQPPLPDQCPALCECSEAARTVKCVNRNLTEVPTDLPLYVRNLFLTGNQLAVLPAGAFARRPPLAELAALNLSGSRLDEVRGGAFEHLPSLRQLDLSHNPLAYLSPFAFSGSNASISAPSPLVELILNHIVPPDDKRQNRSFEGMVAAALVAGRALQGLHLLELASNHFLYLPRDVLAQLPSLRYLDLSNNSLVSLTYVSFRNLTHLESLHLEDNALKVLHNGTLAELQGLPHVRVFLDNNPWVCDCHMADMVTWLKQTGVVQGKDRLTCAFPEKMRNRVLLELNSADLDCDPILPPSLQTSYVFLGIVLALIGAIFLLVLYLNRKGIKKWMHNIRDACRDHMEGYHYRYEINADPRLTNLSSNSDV
Procedure: as §1

human 5T4 on cells [5] = target: T2, human 5T4 on cells; experiment: flow cytometry, SKOV-3 cells (endogenous human 5T4), labelled anti-human IgG secondary, MFI (mean)
Procedure: as §1

T1 sequence (Q07011 24-255 limits assumed): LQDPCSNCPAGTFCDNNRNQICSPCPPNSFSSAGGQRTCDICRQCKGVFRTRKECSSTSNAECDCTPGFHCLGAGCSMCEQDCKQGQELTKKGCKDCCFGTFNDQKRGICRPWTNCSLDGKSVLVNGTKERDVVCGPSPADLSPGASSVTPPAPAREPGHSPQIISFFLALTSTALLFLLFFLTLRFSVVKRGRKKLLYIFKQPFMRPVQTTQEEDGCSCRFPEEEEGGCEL

B1: ALG.APV-191 (bispecific antibody)
chain: EVQLLESGGGLVQPGGSLRLSCAASGFTFDYGSMYWVRQAPGKGLEWVSSISSGSGSTYYADSVKGRFTISHDNSKNTLYLQMNSLRAEDTAVYYCARSSYYGSYYSIDYWGQGTLVTVSSGGGGSGGGGSGGGGSGGGGSDIQMTQSPSSLSASVGDRVTITCRASQSISSYLNWYQQKPGKAPKLLIYAASSLHSGVPSRFSGSGSGTDFTLTISSLQPEDFATYYCQQYYDNLPTFGQGTKLEIKSSEPKSSDKTHTCPPCPAPEAAGAPSVFLFPPKPKDTLMISRTPEVTCVVVDVSHEDPEVKFNWYVDGVEVHNAKTKPREEQYNSTYRVVSVLTVLHQDWLNGKEYKCAVSNKALPAPIEKTISKAKGQPREPQVYTLPPSRDELTKNQVSLTCLVKGFYPSDIAVEWESNGQPENNYKTTPPVLDSDGSFFLYSKLTVDKSRWQQGNVFSCSVMHEALHNHYTQKSLSLSPGSGGGGSGGGGSGGGGSPSEVQLLESGGGLVQPGGSLRLSCAASGFTFSSYAMSWVRQAPGKCLEWVSAISGSGGSTYYADSVKGRFTISRDNSKNTLYLQMNSLRAEDTAVYYCARYYGGYYSAWMDYWGQGTLVTVSSGGGGSGGGGSGGGGSGGGGSDIQMTQSPSSLSASVGDRVTITCRASQSISSFLNWYQQKPGKAPKLLIYAASSLQSGVPSRFSGSGSGTDFTLTISSLQPEDFATYYCQQTYGYLHTFGCGTKLEIKS
notes: Optimized ADAPTIR scFv-Fc-scFv homodimer
Question: With B1 as the binder, how does the “CD137 reporter assay with HCC1143 cells, EC50 against ALG.APV-006 and ALG.APV-004” value (human CD137 on cells [1]) read?
Answer: ≤ 6 fold lower EC50

Question: And the EC50 (human 5T4 on cells [2])?
Answer: 10.9 nM

Question: And the “Maximum MFI” value (human 5T4 on cells [2])?
Answer: 14100

Question: What about the EC50 (human CD137 on cells [3]) of the same binder?
Answer: 1.1 nM

Question: What about the EC50 [4] of the same binder?
Answer: 1.7 nM

Question: What about the EC50 (cynomolgus 5T4 on cells) of the same binder?
Answer: 22 nM

Question: And the “Maximum MFI” value (cynomolgus 5T4 on cells)?
Answer: 25100

B2: ALG.APV-196 (bispecific antibody)
chain: B1 chain with D30S, H196Q, T527D, S529E, S670R, F672A, S748R
notes: as for B1
Question: Which results are given for B2?
Answer: CD137 reporter assay with HCC1143 cells, EC50 against ALG.APV-006 and ALG.APV-004 (human CD137 on cells [1]): ≤ 6 fold lower EC50; EC50 (human 5T4 on cells [2]): 3.4 nM; Maximum MFI (human 5T4 on cells [2]): 13500; EC50 (human CD137 on cells [3]): 0.9 nM; EC50 (human 5T4 on cells [5]): 1.7 nM; Maximum MFI (human 5T4 on cells [5]): 1130; EC50 [4]: 1.8 nM; EC50 (cynomolgus 5T4 on cells): 7 nM; Maximum MFI (cynomolgus 5T4 on cells): 21100

B3: ALG.APV-198 (bispecific antibody)
chain: B1 chain with D30S, Y31H, H196Q, T527D, S529E, S670R, F672A, S748R
notes: as for B1
Question: For B3, which “CD137 reporter assay with HCC1143 cells, EC50 against ALG.APV-006 and ALG.APV-004” value (human CD137 on cells [1]) is on record?
Answer: ≤ 6 fold lower EC50

Question: What about the EC50 (human 5T4 on cells [2]) of the same binder?
Answer: 3.1 nM

Question: And the “Maximum MFI” value (human 5T4 on cells [2])?
Answer: 13200

Question: What about the EC50 (human CD137 on cells [3]) of the same binder?
Answer: 1 nM

Question: And the EC50 (human 5T4 on cells [5])?
Answer: 1.8 nM

Question: What about the “Maximum MFI” value (human 5T4 on cells [5]) of the same binder?
Answer: 1070

Question: What about the EC50 [4] of the same binder?
Answer: 1.8 nM

Question: What about the EC50 (cynomolgus 5T4 on cells) of the same binder?
Answer: 7 nM

Question: And the “Maximum MFI” value (cynomolgus 5T4 on cells)?
Answer: 20600
